Positions count from the first letter of the chain named. Names may count otherwise. Blank lines part the entries; values can stand above or below the binder they belong to.
Target: recombinant histone H3K4me3, P68431
Test: co-immunoprecipitation with anti-H3K4me3 antibodies, quantified anti-GFP immunoblot
Conditions: chain shown with the change, 0.3-M NaCl extracts of XP-C fibroblasts, recombinant H3K4me3 2 µg, n = 3, read off a plot

B3: wild-type XPC-GFP fusion, Q01831 D748K (protein)
chain: MARKRAAGGEPRGRELRSQKSKAKSKARREEEEEDAFEDEKPPKKSLLSKVSQGKRKRGCSHPGGSADGPAKKKVAKVTVKSENLKVIKDEALSDGDDLRDFPSDLKKAHHLKRGATMNEDSNEEEEESENDWEEVEELSEPVLGDVRESTAFSRSLLPVKPVEIEIETPEQAKTRERSEKIKLEFETYLRRAMKRFNKGVHEDTHKVHLLCLLANGFYRNNICSQPDLHAIGLSIIPARFTRVLPRDVDTYYLSNLVKWFIGTFTVNAELSASEQDNLQTTLERRFAIYSARDDEELVHIFLLILRALQLLTRLVLSLQPIPLKSATAKGKKPSKERLTADPGGSSETSSQVLENHTKPKTSKGTKQEETFAKGTCRPSAKGKRNKGGRKKRSKPSSSEEDEGPGDKQEKATQRRPHGRERRVASRVSYKEESGSDEAGSGSDFELSSGEASDPSDEDSEPGPPKQRKAPAPQRTKAGSKSASRTHRGSHRKDPSLPAASSSSSSSKRGKKMCSDGEKAEKRSIAGIDQWLEVFCEQEEKWVCVDCVHGVVGQPLTCYKYATKPMTYVVGIDSDGWVRDVTQRYDPVWMTVTRKCRVDAEWWAETLRPYQSPFMDREKKEDLEFQAKHMDQPLPTAIGLYKNHPLYALKRHLLKYEAIYPETAAILGYCRGEAVYSRDCVHTLHSRDTWLKKARVVRLGEVPYKMVKGFSNRARKARLAEPQLREENDLGLFGYWQTEEYQPPVAVKGKVPRNEFGNVYLFLPSMMPIGCVQLNLPNLHRVARKLDIDCVQAITGFDFHGGYSHPVTDGYIVCEEFKDVLLTAWENEQAVIERKEKEKKEKRALGNWKLLAKGLLIRERLKRRYGPKSEAAAPHTDAGGGLSSDEEEGTSSQAEAARILAASWPQNREDEEKQKLKGGPKKTKREKKAAASHLFPFEQL
percent of parent (P = 0.0087 vs WT): 55 % WT

B4: wild-type XPC-GFP fusion, Q01831 D748K; E755K (protein)
chain: B3 chain with E755K
percent of parent (P = 0.0147 vs WT): 46 % WT

More lines, now with the values ahead:

percent of parent: 72 % WT
B1: wild-type XPC-GFP fusion, Q01831 W690S (protein)
chain: B3 chain with W690S, K748D

percent of parent: 85 % WT
B2: wild-type XPC-GFP fusion, Q01831 E755K (protein)
chain: B3 chain with K748D, E755K
